Measured values published in patent publication US20140356359A1 (RINAT NEUROSCIENCE, published 2014).

Legend:
[1] = target: full-length cyno GHR on transfected HEK293 cells (cynomolgus monkey); experiment: cell-based or functional assay
[2] = target: T1, human GHR (as in Tables 1 and 2) (human, UniProt P10912 49-253, limits assumed); experiment: Biacore, Fab, 37 C
T1 sequence: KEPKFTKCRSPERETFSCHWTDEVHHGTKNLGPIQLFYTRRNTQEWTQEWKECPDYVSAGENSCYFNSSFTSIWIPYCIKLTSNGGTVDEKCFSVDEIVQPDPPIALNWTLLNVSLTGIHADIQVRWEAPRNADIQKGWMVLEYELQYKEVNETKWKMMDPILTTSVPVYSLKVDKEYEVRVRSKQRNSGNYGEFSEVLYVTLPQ

[3] = target: T1, human GHR (as in Tables 1 and 2); experiment: Biacore, Fab, 25 C
[4] = target: T1, human GHR (as in Tables 1 and 2); experiment: Biacore, 25 C; 25 C (no asterisk)
[5] = target: T2, human GHR, his-tagged monomer of amino acids 31-235 of the extracellular domain (human, UniProt P10912 49-253); experiment: Biacore 2000, antibody captured on anti-human Fc, GHR as analyte, 25 C, replicate
T2 construct: not shown: his tag
T2 sequence: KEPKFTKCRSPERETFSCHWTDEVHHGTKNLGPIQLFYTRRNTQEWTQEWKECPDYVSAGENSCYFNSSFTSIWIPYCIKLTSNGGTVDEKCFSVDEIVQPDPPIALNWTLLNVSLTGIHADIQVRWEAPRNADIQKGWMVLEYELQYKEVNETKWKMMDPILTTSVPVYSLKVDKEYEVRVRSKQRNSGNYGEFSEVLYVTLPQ
Procedure: (§1) An anti-human Fc sensor chip was prepared by activating all flow cells of a Biacore™ CM4 sensor chip with a 1:1 (v/v) mixture of 400 mM ethyl-N-(3-diethylaminopropyl)carbodiimide (EDC, Biacore™) and 100 mM N-hydroxysuccinimide (NHS, Biacore™) for 7 minutes, at a flow rate of 10 μL/min. […] All flow cells were blocked with 100 mM ethylenediamine in 150 mM borate buffer pH 8.5 for 7 minutes at 10 μL/min.
(§2) Antibodies were captured onto downstream flow cells (flow cells 2, 3 and 4) at 4 μg/mL at a flow rate of 10 μL/min for 1 minute. Different antibodies were captured on each flow cell. Flow cell 1 was used as a reference surface. Following capture of antibodies, analyte (buffer, human GHR or cyno GHR) was injected at 30 μL/min on all flow cells for two minutes. […] After the analyte injection, dissociation was monitored for 30 minutes (for the 400 nM GHR cycle) or 30 seconds (all other cycles) followed by regeneration of all flow cells with two 30-second injections of 75 mM phosphoric acid. A 5-membered dilution series of GHR was analyzed using this method, where the top concentration was 400 nM and the dilution factor was 3-fold. Buffer cycles were collected with both 30 minute and 30 second dissociation times for double-referencing purposes. The double-referenced sensorgrams were fit globally to a simple 1:1 Langmuir with mass transport binding model.
(§3) The experiments were performed at 25° C. using a running buffer of 10 mM HEPES, 150 mM NaCl, 0.05% (v/v) Tween-20™, pH 7.4.

[6] = target: T3, cyno GHR, his-tagged monomer of amino acids 31-235 of the extracellular domain (cynomolgus monkey, UniProt Q9XSZ1 49-253 (Papio anubis entry)); experiment: as above
T3 construct: not shown: his tag
T3 chain: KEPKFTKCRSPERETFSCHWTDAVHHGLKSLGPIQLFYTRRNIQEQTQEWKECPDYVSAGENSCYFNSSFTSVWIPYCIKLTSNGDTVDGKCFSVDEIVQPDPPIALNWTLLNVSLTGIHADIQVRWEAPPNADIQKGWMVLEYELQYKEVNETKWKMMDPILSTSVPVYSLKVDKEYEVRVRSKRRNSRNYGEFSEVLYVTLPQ
Procedure: as §1, §2, §3

[7] = target: T2, human GHR, his-tagged monomer of amino …; experiment: Biacore 2000, antibody captured on anti-human Fc, GHR as analyte, 25 C
Procedure: as §1, §2, §3

[8] = target: T3, cyno GHR, his-tagged monomer of amino …; experiment: as above
Procedure: as §1, §2, §3

[9] = target: T1, human GHR (as in Tables 1 and 2); experiment: Biacore, IgG2ΔA, 25 C
[10] = target: T2, human GHR, his-tagged monomer of amino …; experiment: Biacore T200, Fab captured on anti-human kappa, GHR as analyte, 37 C
Procedure: as §1, with “kappa” for “Fc”, “EDC” for “ethyl-N-(3-diethylaminopropyl)carbodiimide (EDC, Biacore™)”, “NHS” for “N-hydroxysuccinimide (NHS, Biacore™)”
(§4) The kinetics assay was run using a methodology with varying dissociation times as described in Katsamba et al., supra. Fabs were captured onto downstream flow cells (flow cells 2, 3 and 4) at 2 μg/mL at a flow rate of 10 μL/min for 2 minutes. Different Fabs were captured on each flow cell. Flow cell 1 was used as a reference surface. Following capture of fabs, analyte (buffer, human GHR or cyno GHR) was injected at 30 μL/min on all flow cells for two minutes. […] A 6-membered dilution series of GHR was analyzed using this method, where the top concentration was 400 nM and the dilution factor was 3-fold. Buffer cycles were collected with both 30 minute and 60 second dissociation times for double-referencing purposes. The double-referenced sensorgrams were fit globally to a simple 1:1 Langmuir with mass transport binding model.
(§5) The experiments were performed at 37° C. using a running buffer of 10 mM HEPES, 150 mM NaCl, 0.05% (v/v) Tween-20™, pH 7.4.

[11] = target: T3, cyno GHR, his-tagged monomer of amino …; experiment: as above
Procedure: as §1, with “kappa” for “Fc”, “EDC” for “ethyl-N-(3-diethylaminopropyl)carbodiimide (EDC, Biacore™)”, “NHS” for “N-hydroxysuccinimide (NHS, Biacore™)”
as §4, §5

[12] = target: T4, hGHR-hFc fusion protein (R&D Systems Catalog#1210-GR) (human, UniProt P10912 19-264); experiment: Biacore T200, hGHR-hFc captured on anti-human Fc, Fab as analyte, 37 C
T4 construct: bought; also called hGHR/Fc; human GHR/hFc; not shown: human Fc of the bought fusion protein
T4 sequence: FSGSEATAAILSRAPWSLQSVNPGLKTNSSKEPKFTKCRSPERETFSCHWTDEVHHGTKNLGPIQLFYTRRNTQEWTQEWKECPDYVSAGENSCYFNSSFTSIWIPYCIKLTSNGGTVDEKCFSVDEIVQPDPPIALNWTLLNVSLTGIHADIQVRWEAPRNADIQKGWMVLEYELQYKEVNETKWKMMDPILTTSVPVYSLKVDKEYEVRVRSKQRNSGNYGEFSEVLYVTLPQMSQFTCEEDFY
Procedure: as §1, with “EDC” for “ethyl-N-(3-diethylaminopropyl)carbodiimide (EDC, Biacore™)”, “NHS” for “N-hydroxysuccinimide (NHS, Biacore™)”
The kinetics assay was run using a methodology with varying dissociation times as described in Katsamba et al., supra. […] Flow cell 1 was used as a reference surface. Following capture of hGHR-hFc, analyte (buffer, SS1 Fab or Ab13 Fab) was injected at 30 μL/min on all flow cells for two minutes. After the analyte injection, dissociation was monitored for 30 minutes (400 nM Fab cycle) or 60 seconds (all other cycles) followed by regeneration with two 30-second injections of 75 mM phosphoric acid. A 5-membered dilution series of Fab was analyzed using this method, where the top concentration was 400 nM and the dilution factor was 3-fold. Buffer cycles were collected at both 30 minute and 60 second dissociation times for double-referencing purposes. The double-referenced sensorgrams were fit globally to a simple 1:1 Langmuir with mass transport binding model (with a local Rmax parameter for each flow cell).
as §5

[13] = target: T1, human GHR (as in Tables 1 and 2); experiment: Biacore, 37 C (asterisk)

Sequence of full-length cyno GHR on transfected HEK293 cells (cynomolgus monkey) (Q9XSZ1 other isoform, or with tags, fused parts or gaps limits assumed): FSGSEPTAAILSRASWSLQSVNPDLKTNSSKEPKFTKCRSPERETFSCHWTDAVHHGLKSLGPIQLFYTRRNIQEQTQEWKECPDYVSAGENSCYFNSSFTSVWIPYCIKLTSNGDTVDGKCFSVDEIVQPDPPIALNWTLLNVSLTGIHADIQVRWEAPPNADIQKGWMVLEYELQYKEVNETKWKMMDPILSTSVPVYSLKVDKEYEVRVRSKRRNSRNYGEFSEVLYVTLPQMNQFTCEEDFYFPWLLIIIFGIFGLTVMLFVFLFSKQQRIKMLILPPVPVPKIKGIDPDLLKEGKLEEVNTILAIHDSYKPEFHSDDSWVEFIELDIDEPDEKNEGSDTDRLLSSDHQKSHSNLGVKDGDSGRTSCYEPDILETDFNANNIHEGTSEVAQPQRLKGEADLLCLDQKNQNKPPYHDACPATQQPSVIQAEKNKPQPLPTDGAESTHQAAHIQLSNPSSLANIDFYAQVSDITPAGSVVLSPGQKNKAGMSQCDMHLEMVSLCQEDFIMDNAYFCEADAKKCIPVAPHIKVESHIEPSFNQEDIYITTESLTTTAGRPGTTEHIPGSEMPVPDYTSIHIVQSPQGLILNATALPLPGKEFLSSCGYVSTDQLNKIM

Molecule: human growth hormone (from UniProt P01241 27-217) (ligand)
- STAT5 phosphorylation, fluorescent signal (Ave); 4.5 nM GH (fluorescent signal) [1]: 562
- STAT5 phosphorylation, fluorescent signal (ave); 4.5 nM GH (fluorescent signal) [1]: 847

B1: SS4 Fab (Fab, V domains shown)
VH: EVQLVESGGGLVKPGGSLRLSCAASGFTFSDAWMDWVRQAPGKGLEWVAEIRSKANNHATYYAESVKGRFTISRDDSKNTLYLQMNSLKTEDTAVYYCTLYRDYWGQGTLVTVSS
VL: EIVLTQSPGTLSLSPGERATLSCTATSSVSSSYLHWYQQKPGQAPRLLIYSTSNLASGIPDRFSGSGSGTDFTLTISRLEPEDFAVYYCHQYHRSTPTFGGGTKVEIK
notes: Fab
- Kd [2]: 124 nM
- Kd [3]: 28.4 nM
- Kd [4]: 28.4 nM

B2: SS1 hIgG2Δa (antibody, V domains shown)
VH: EVQLVESGGGLVKPGGSLRLSCAASGFTFSDAWMDWVRQAPGKGLEWVAEIRSKANYHATYYAESVKGRFTISRDDSKNTLYLQMNSLKTEDTAVYYCTLIRDYWGQGTLVTVSS
VL: EIVLTQSPGTLSLSPGERATLSCTATSSVSSSYLNWYQQKPGQAPRLLIYSTSNLASGIPDRFSGSGSGTDFTLTISRLEPEDFAVYYCHQYHRSTPTFGGGTKVEIKR
notes: humanized IgG; also called SS1 (replicate)
- Kd [5]: 0.8 nM
- koff [5]: 6.4e-05 s⁻¹
- kon [5]: 77000 M⁻¹ s⁻¹
- t 1/2 [5]: 3 h
- Kd [6]: 1.2 nM
- koff [6]: 0.00011 s⁻¹
- kon [6]: 89000 M⁻¹ s⁻¹
- t 1/2 [6]: 1.78 h
- Kd [7]: 1 nM
- koff [7]: 7.7e-05 s⁻¹
- kon [7]: 74000 M⁻¹ s⁻¹
- t 1/2 [7]: 2.5 h
- Kd [8]: 1.3 nM
- koff [8]: 0.0001 s⁻¹
- kon [8]: 81000 M⁻¹ s⁻¹
- t 1/2 [8]: 1.85 h

B3: SS4 IgG2ΔA (antibody, V domains shown)
VH: EVQLVESGGGLVKPGGSLRLSCAASGFTFSDAWMDWVRQAPGKGLEWVAEIRSKANNHATYYAESVKGRFTISRDDSKNTLYLQMNSLKTEDTAVYYCTLYRDYWGQGTLVTVSS
VL: EIVLTQSPGTLSLSPGERATLSCTATSSVSSSYLHWYQQKPGQAPRLLIYSTSNLASGIPDRFSGSGSGTDFTLTISRLEPEDFAVYYCHQYHRSTPTFGGGTKVEIK
notes: IgG2ΔA
- Kd [9]: 43.1 nM

B4: SS3 hIgG2Δa (antibody, V domains shown)
VH: EVQLVESGGGLVKPGGSLRLSCAASGFTFSDAWMDWVRQAPGKGLEWVAEIRSKANNHATYYAESVKGRFTISRDDSKNTLYLQMNSLKTEDTAVYYCTLFRDYWGQGTLVTVSS
VL: EIVLTQSPGTLSLSPGERATLSCTATSSVSSSYLNWYQQKPGQAPRLLIYSTSNLASGIPDRFSGSGSGTDFTLTISRLEPEDFAVYYCHQYHRFTPTFGGGTKVEIKR
notes: also called SS3 IgG2ΔA
- Kd [9]: 1.7 nM

B5: SS1 Fab (Fab, V domains shown)
VH: EVQLVESGGGLVKPGGSLRLSCAASGFTFSDAWMDWVRQAPGKGLEWVAEIRSKANYHATYYAESVKGRFTISRDDSKNTLYLQMNSLKTEDTAVYYCTLIRDYWGQGTLVTVSS
VL: EIVLTQSPGTLSLSPGERATLSCTATSSVSSSYLNWYQQKPGQAPRLLIYSTSNLASGIPDRFSGSGSGTDFTLTISRLEPEDFAVYYCHQYHRSTPTFGGGTKVEIK
notes: Fab
- Kd [10]: 1.6 nM
- koff [10]: 0.000215 s⁻¹
- kon [10]: 138000 M⁻¹ s⁻¹
- t 1/2 [10]: 0.895 h
- Kd [11]: 3.2 nM
- koff [11]: 0.000576 s⁻¹
- kon [11]: 182000 M⁻¹ s⁻¹
- t 1/2 [11]: 0.333 h
- Kd [2]: 1.6 nM
- Kd [12]: 1 nM
- koff [12]: 0.000359 s⁻¹
- kon [12]: 374000 M⁻¹ s⁻¹
- t 1/2 [12]: 0.537 h
- Kd [13]: 1.56 nM

B6: TM9 Fab (Fab, V domains shown)
VH: EVQLVESGGGLVKPGGSLRLSCAASGFTFSDAWMDWVRQAPGKGLEWVAEIRSKANYHATYYAESVKGRFTISRDDSKNTLYLQMNSLKTEDTAVYYCTLIRDYWGQGTLVTVSS
VL: EIVLTQSPGTLSLSPGERATLSCTATSSVSSSYLHWYQQKPGQAPRLLIYSTSNLASGIPDRFSGSGSGTDFTLTISRLEPEDFAVYYCHQYHRGTPTFGGGTKVEIK
notes: Fab
- Kd [2]: 3.3 nM
- Kd [13]: 3.3 nM

B7: SS3 Fab (Fab, V domains shown)
VH: EVQLVESGGGLVKPGGSLRLSCAASGFTFSDAWMDWVRQAPGKGLEWVAEIRSKANNHATYYAESVKGRFTISRDDSKNTLYLQMNSLKTEDTAVYYCTLFRDYWGQGTLVTVSS
VL: EIVLTQSPGTLSLSPGERATLSCTATSSVSSSYLNWYQQKPGQAPRLLIYSTSNLASGIPDRFSGSGSGTDFTLTISRLEPEDFAVYYCHQYHRFTPTFGGGTKVEIK
notes: Fab
- Kd [2]: 1.99 nM
- Kd [13]: 1.99 nM

B8: TM1 Fab (Fab, V domains shown)
VH: EVQLVESGGGLVKPGGSLRLSCAASGFTFSDAWMDWVRQAPGKGLEWVAEIRSKANYHATYYAESVKGRFTISRDDSKNTLYLQMNSLKTEDTAVYYCTLIRDYWGQGTLVTVSS
VL: EIVLTQSPGTLSLSPGERATLSCTATSSVSSWYLHWYQQKPGQAPRLLIYSTSNLASGIPDRFSGSGSGTDFTLTISRLEPEDFAVYYCHQYHRSTPTFGGGTKVEIK
notes: Fab
- Kd [2]: 3.4 nM
- Kd [13]: 3.4 nM
